The results in this text go back to patent US20190144529A1 (UCB, published 2019).

Changes are numbered by the printed parent chain. Several values for one entry are separate records, joined by “and”; a condition that tells them apart may be missing. Identical values can stand only once. Like-named read-outs stand apart in the source and are kept apart here.

The target of experiment [1] is T1, mouse serum albumin (mouse, UniProt P07724 25-608).
T1 construct: mature; Bought purified serum albumin; also called MSA; Mouse albumin
Description: SPR.
Description: (§1) For analysis at pH 7.0, 6.0, 5.5 and 5.0, a running buffer of 40 mM citric acid, 80 mM sodium phosphate 50 mM NaCl, 3 mM EDTA, 0.05% v/v P20 was used. The required pH was achieved by altering the ratio of citric acid to sodium phosphate. All experiments were performed at 25° C. The antibody samples were captured to the sensor chip surface using either a human F(ab′)₂-specific or human Fc-specific goat Fab (Jackson ImmunoResearch). Covalent immobilisation of the capture antibody was achieved by standard amine coupling chemistry to a level of 6000-7000 response units (RU).
(§2) Each assay cycle consisted of firstly capturing the antibody sample using a 1 min injection, before an association phase consisting of a 3 min injection of albumin, after which dissociation was monitored. After each cycle, the capture surface was regenerated with two 1 min injections of 40 mM HCl followed by 30 s of 5 mM NaOH. The flow rates used were 10 μl/min for capture, 30 μl/min for both the association and dissociation phases, and 10 μl/min for regeneration. A blank flow-cell was used for reference subtraction and buffer-blank injections were included to subtract instrument noise and drift.

The target of experiment [2] is T2, rat serum albumin (rat, UniProt P02770 25-608).
T2 construct: mature; Bought purified serum albumin; also called RSA; Rat albumin
Description: SPR. In general terms: Surface plasmon resonance follows binding to a sensor surface in real time, without labels.
Description: as §1, §2

Experiment [3] has as its target T3, rabbit serum albumin (rabbit, UniProt P49065 25-608).
T3 construct: mature; Bought purified serum albumin; also called RbSA; Rabbit albumin
Briefly: SPR.
Description: as §1, §2

For experiment [4], the target named is T4, human serum albumin (human, UniProt P02768 25-609).
T4 construct: mature; Bought purified serum albumin; also called HSA; Human albumin
Briefly: SPR at pH 5.0.
Description: as §1, §2

Experiment [5] deals with T4, human serum albumin. Description: SPR at pH 5.5.
The target of experiment [6] is T4, human serum albumin. Description: SPR at pH 6.0.
Description: as §1, §2
Experiment [7] has as its target T4, human serum albumin. Briefly: SPR at pH 7.0.
Description: as §1, §2
The target in experiment [8] is T4, human serum albumin. Briefly: SPR, Fab captured, HSA.
Description: as §1, §2
Experiment [9] concerns the target T4, human serum albumin. Description: SPR, Fab captured, albumin titrated.
Description: as §1, §2
The target of experiment [10] is T1, mouse serum albumin. Description: SPR, Fab captured, albumin titrated.
Description: as §1, §2
Experiment [11] has as its target T2, rat serum albumin. Description: SPR, Fab captured, albumin titrated.
Description: as §1, §2
The target of experiment [12] is T5, cynomolgus serum albumin (cynomolgus, UniProt A2V9Z4 25-608).
T5 construct: mature; Bought purified serum albumin; also called CSA; Cynomolgus albumin
Description: SPR, Fab captured, albumin titrated.
Description: as §1, §2

The target of experiment [13] is T3, rabbit serum albumin. Description: SPR, Fab captured, albumin titrated.
Description: as §1, §2
For experiment [14], the target named is T6, bovine serum albumin (bovine, UniProt P02769 25-607).
T6 construct: mature; Bought purified serum albumin; also called BSA; Bovine albumin
Description: SPR, Fab captured, albumin titrated.
Description: as §1, §2

Experiment [15] has as its target T4, human serum albumin. Briefly: SPR, Fab captured, albumin titrated. The source holds these as a separate data set.
Description: as §1, §2
For experiment [16], the target named is T1, mouse serum albumin. Briefly: SPR, Fab captured, albumin titrated. The source holds these as a separate data set.
Description: as §1, §2
Experiment [17] deals with T4, human serum albumin. Description: SPR, Fab captured; albumin taken as HSA.
Description: as §2
For experiment [18], the target named is T4, human serum albumin. Briefly: SPR, Fab captured; albumin taken as HSA. This is another data set of the same source.
Description: as §2
In experiment [19] the target is T4, human serum albumin. Description: SPR, Fab captured; albumin taken as HSA. This is another data set of the same source.
Description: as §2
The target in experiment [20] is T4, human serum albumin. Description: SPR, humanized IgG1.
Description: as §1, §2
Experiment [21] addresses T1, mouse serum albumin. Briefly: SPR, humanized IgG1.
Description: as §1, §2
The target of experiment [22] is T2, rat serum albumin. Description: SPR, humanized IgG1.
Description: as §1, §2
Experiment [23] concerns the target T4, human serum albumin. Briefly: SPR, HSA.
Description: as §1, §2
The target in experiment [24] is T4, human serum albumin. Description: SPR, rabbit Fab.
Experiment [25] concerns the target T1, mouse serum albumin. Briefly: SPR, rabbit Fab.
Experiment [26] has as its target T2, rat serum albumin. Description: FMAT, B cell supernatant.

B1: CA645 gL4gH5 Fab (Fab, V domains shown)
VH: EVQLLESGGGLVQPGGSLRLSCAVSGIDLSNYAINWVRQAPGKGLEWIGIIWASGTTFYATWAKGRFTISRDNSKNTVYLQMNSLRAEDTAVYYCARTVPGYSTAPYFDLWGQGTLVTVSS
VL: DIQMTQSPSSVSASVGDRVTITCQSSPSVWSNFLSWYQQKPGKAPKLLIYEASKLTSGVPSRFSGSGSGTDFTLTISSLQPEDFATYYCGGGYSSISDTTFGGGTKVEIK
notes: Humanized Fab: human gamma1 CH1, human kappa constant region (Km3); parent of all mutants; also called CA645 Fab; Fab_645
As for B1, in experiment [1], the “fold weaker affinity for MSA than for HSA” value amounted to 1.2 fold. For the same molecule, in experiment [2], the “fold lower affinity for RSA than for HSA” value is about 10 fold. Also, the “fold reduction in association rate for RbSA against HSA” value in experiment [3] came out at 18 fold. The dissociation constant (Kd) in [4] came out at 7.1 nM; in experiment [5] it was 10.7 nM; in experiment [6], 12.5 nM; in experiment [7], 13.3 nM; in [8] it was 1.23 nM; in experiment [9], 4.6 nM. For the same molecule, the Kd was determined as 7.1 nM in experiment [10]; 54 nM in [11]; 3.3 nM in [12]; 162 nM in experiment [13]; 1.8 nM in [15]; 2.2 nM in experiment [16]. Further, the Kd was 2.14 nM and 2.51 nM in experiment [17]; 2.72 nM and 2.7 nM in experiment [18]; 2.97 nM and 3.8 nM in [19]. Also, the dissociation rate constant (koff) in experiment [8] worked out at 0.000172 s⁻¹; in experiment [9], 0.00041 s⁻¹; in [10], 0.00034 s⁻¹; in experiment [11] it was 0.0013 s⁻¹; in [12], 0.00035 s⁻¹; in [13], 0.00029 s⁻¹. Further, the koff in experiment [15] was 0.0004 s⁻¹; in experiment [16], 0.00068 s⁻¹; in [17] it was 0.000123 s⁻¹ and 0.00014 s⁻¹; in experiment [18] it was 0.000161 s⁻¹ and 0.000158 s⁻¹; in [19], 0.000167 s⁻¹ and 0.000211 s⁻¹. The on-rate constant (kon) in experiment [8] was found to be 139000 M⁻¹ s⁻¹; in experiment [9], 90000 M⁻¹ s⁻¹; in experiment [10] it was 48000 M⁻¹ s⁻¹; in [11], 24000 M⁻¹ s⁻¹; in [12], 100000 M⁻¹ s⁻¹; in experiment [13] it was 2000 M⁻¹ s⁻¹. The kon in experiment [15] was 220000 M⁻¹ s⁻¹; in [16], 310000 M⁻¹ s⁻¹; in [17] it was 57500 M⁻¹ s⁻¹ and 56000 M⁻¹ s⁻¹; in experiment [18] it was 59100 M⁻¹ s⁻¹ and 58600 M⁻¹ s⁻¹; in [19], 56200 M⁻¹ s⁻¹ and 55700 M⁻¹ s⁻¹. The binding result in experiment [14] is on record as “no binding”.

B2: CA645 humanized IgG1 (conservative graft gL1gH1) (antibody, V domains shown)
VH: EVQLLESGGGLVQPGGSLRLSCAVSGIDLSNYAINWVRQAPGKGLEWIGIIWASGTTFYATWAKGRFTISRDSTTVYLQMNSLRAEDTAVYYCARTVPGYSTAPYFDLWGQGTLVTVSS
VL: B1 VL with Q3V, S64K
notes: Human IgG1, full human gamma1 constant region, human kappa constant region (Km3 allotype); also called CA645 gL1gH1
As to B2, the values for the equilibrium dissociation constant (Kd) in [20], in experiment [21] and in experiment [22] were 0.82 nM, 2.9 nM and 7.9 nM, respectively.

B3: CA645 gL4gH46 Fab (Fab, V domains shown)
VH: B1 VH with V99Y
VL: B1 VL
notes: Fab: human gamma1 CH1, human kappa (Km3); Kabat numbering
In experiment [19], B3 came in with an equilibrium dissociation constant (Kd) of 3.26 nM, a dissociation rate constant (koff) of 0.000184 s⁻¹ and a kon of 56400 M⁻¹ s⁻¹.

B4: CA645 gL33gH5 Fab (Fab, V domains shown)
VH: B1 VH
VL: B1 VL with S68E
notes: as for B3
In [19], B4 gave a Kd of 3.32 nM, a koff of 0.000179 s⁻¹ and an association rate constant (kon) of 54000 M⁻¹ s⁻¹.

B5: CA645 gL24gH5 Fab (Fab, V domains shown)
VH: B1 VH
VL: B1 VL with S31V
notes: as for B3
In [18], B5 returned a dissociation constant Kd of 16.1 nM, an off-rate constant (koff) of 0.000883 s⁻¹ and an association rate constant (kon) of 54700 M⁻¹ s⁻¹.

B6: CA645 gL31gH5 Fab (Fab, V domains shown)
VH: B1 VH
VL: B1 VL with S68T
notes: as for B3
In experiment [19], B6 came in with an equilibrium dissociation constant (Kd) of 2.49 nM, a koff of 0.000142 s⁻¹ and a kon of 57200 M⁻¹ s⁻¹.

B7: CA645 gL30gH5 Fab (Fab, V domains shown)
VH: B1 VH
VL: B1 VL with S68I
notes: as for B3
On to B7, for which, in experiment [19], the Kd was 1.61 nM, the dissociation rate constant (koff) was 9.4e-05 s⁻¹ and the on-rate (kon) came out at 58400 M⁻¹ s⁻¹.

B8: CA645 gL11gH5 Fab (Fab, V domains shown)
VH: B1 VH
VL: B1 VL with S28N
notes: as for B3
For B8, in [19], the Kd is 4.42 nM, the off-rate (koff) is 0.000249 s⁻¹ and the kon was found to be 56400 M⁻¹ s⁻¹.

B9: CA645 gL29gH5 Fab (Fab, V domains shown)
VH: B1 VH
VL: B1 VL with S68V
notes: as for B3
For the molecule B9, in experiment [19], the Kd is 1.78 nM, the off-rate (koff) was 0.000103 s⁻¹ and the kon is 57700 M⁻¹ s⁻¹.

B10: CA645 gL32gH5 Fab (Fab, V domains shown)
VH: B1 VH
VL: B1 VL with S68Q
notes: as for B3
In [19], B10 yielded a dissociation constant (Kd) of 2.44 nM, a koff of 0.000143 s⁻¹ and an on-rate (kon) of 58600 M⁻¹ s⁻¹.

B11: CA645 gL28gH5 Fab (Fab, V domains shown)
VH: B1 VH
VL: B1 VL with S68L
notes: as for B3
Take B11: in experiment [19], the dissociation constant (Kd) came to 1.85 nM, the koff stood at 0.000109 s⁻¹ and the on-rate (kon) was determined as 59000 M⁻¹ s⁻¹.

B12: CA645 gL26gH5 Fab (Fab, V domains shown)
VH: B1 VH
VL: B1 VL with S31Y
notes: as for B3
For the molecule B12, in experiment [18], the Kd turned out to be 4.13 nM, the koff worked out at 0.000248 s⁻¹ and the association rate constant (kon) amounted to 60100 M⁻¹ s⁻¹.

B13: CA645 gL5gH5 Fab (Fab, V domains shown)
VH: B1 VH
VL: B1 VL with W30A
notes: as for B3
With B13, the “fold weaker affinity for MSA than for HSA” value in [1] is 1.2 fold. For the same molecule, in [23], the “fold weaker affinity than gL4gH5” value amounted to 368 fold. Moreover, the Kd in experiment [8] was determined as 453 nM; in [15], 254 nM; in experiment [16], 316 nM. The off-rate constant (koff) in [8] was found to be 0.0571 s⁻¹; in experiment [15] it was 0.022 s⁻¹; in [16] it was 0.0038 s⁻¹. The association rate constant (kon) in experiment [8] came to 126000 M⁻¹ s⁻¹; in [15], 85000 M⁻¹ s⁻¹; in experiment [16], 12000 M⁻¹ s⁻¹.

B14: CA645 gL25gH5 Fab (Fab, V domains shown)
VH: B1 VH
VL: B1 VL with S31F
notes: as for B3
In experiment [18], B14 yielded an equilibrium dissociation constant (Kd) of 3.85 nM, an off-rate constant (koff) of 0.000217 s⁻¹ and a kon of 56200 M⁻¹ s⁻¹.

B15: CA645 recombinant rabbit Fab (Fab, V domains shown)
VH: QSLEESGGRLVTPGTPLTLTCTVSGIDLSNYAINWVRQAPGKGLEWIGIIWASGTTFYATWAKGRFTISRPSTTVDLEMTSLTTADTATYFCARTVPGYSTAPYFDLWGPGTLVTVSS
VL: AAVLTQTPSPVSAAVGGTVTINCQSSPSVWSNFLSWYQQKPGQPPKLLIYEASKLTSGVPSRFKGSGSGTQFTLTISDVQCGDAATYYCGGGYSSISDTTFGGGTKVVVK
notes: Fab with rabbit heavy CH1 and rabbit light chain constant region
In the case of B15, the values for the Kd in experiment [24] and in [25] were 0.31 nM and 2.6 nM, respectively.

B16: CA645 rabbit antibody secreted in B cell supernatant (antibody, V domains shown)
VH: B15 VH
VL: B15 VL
notes: Rabbit IgG secreted by cultured B cells
On to B16, for which the “fold difference of binding level to RSA against HSA” value in [26] was at most 5 fold.

One may read the Kd as the free concentration of one partner at which half of the binding sites on the other are occupied at equilibrium, for simple one-to-one binding. A lower Kd goes with higher affinity. In general, koff refers to the first-order rate constant of dissociation. The term kon denotes the rate constant with which the complex forms. A higher kon goes with faster complex formation.
